According to US9138467:

Columns and labels:
[1] = target: M. gallisepticum affinity purified antigen; experiment: lectin affinity chromatography, protein in eluate as percent of load
[2] = target: M. gallisepticum affinity purified antigen; experiment: lectin affinity chromatography, protein in eluate (about 1.5 mg loaded)

Concanavalin A (immobilized Con A column) (from UniProt P02866 30-281)
% recovery in Con A elution [1]: 5.7% | Total protein (mg) eluted from Con A column [2]: 0.088 mg
